Data from the nanobody polyreactivity screen of Harvey et al. (2022).

Assay: yeast display, Sf9 membrane polyspecificity reagent, FACS + sequencing; frameworks hold sequencing errors
How it was run: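 A synthetic nanobody library was expressed on Saccharomyces cerevisiae BJ5465 by galactose induction for 36–48 hours. The library was stained for 1 hour at 4 °C with 10% biotinylated, detergent-solubilized Sf9 membrane reagent and enriched with streptavidin microbeads before FACS. Low and high (top ~1%) gates were set on anti-HA fluorescence for expression and streptavidin fluorescence for reagent binding, and each polyreactivity label reflects the gate of origin.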

Sequence | polyreactivity (PSR sort gate)
QVQLVESGGGLVQAGGSLRLSCAASGSIFPYYTMGWYRQAPGKERELVAAISGSGGSTYYADSVKGRFTISRDNAKNTVYLQMNSLKPEDTAVYYCAAYRRTWFDYWGQGTQVNVSS | high polyreactivity
QVQLVESGGGLVQAGGSLRLSCAASGSIFPYYTMGWYRQAPGKERELVATITTGGSTNYADSVKGRFTISRDNAENTVYLQMNCLKPEDIAVYYCNKDGVVEVRFTGRQEYDYWGQGTQVTVSS | low polyreactivity
QVQLVESGGGLVQAGGSLRLSCAASGSIFQGNAMGWYTQAPGKERELVAAITYSGGSTYYADSVKGRFTISRDNAKNTVYLQMNSLKAEDTAVYYCNTTLRDSRQYVDRAQYNRYDYWGQGTQVTVSS | low polyreactivity
QVQLVESGGGLVQAGGSLRLSCAASGSIFQHNDMGWYRQAPGKERELVAAMSRSGGSTYYADSVKGRFTISRDNAKNTVYLQRNSLKPEDTAVYYCNAGRRTGRYAYWGQGTQVTVSS | high polyreactivity
QVQLVESGGGLVQAGGSLRLSCAASGSIFQPNGMGWYRQAPGQEREFVARIDRSGGSTYYADSVKGRFTISRDNAKNTVYLQMNSLKPEDTAVYYCHAAGEVIGYDYWGQGTQVTVSS | low polyreactivity
QVQLVESGGGLVQAGGSLRLSCAASGSIFQPYAMGWYRQAPGKERELVAAISSSGGSTTYADSVKGRFTISRDNAKNTVYLQMNSLKPEDTAVYYCAADVEYKVFPGDYWGQGTQVTVSS | low polyreactivity
QVQLVESGGGLVQAGGSLRLSCAASGSIFQRTAMGWYRQAPGNERELVASINSGGSTNYADSVKGRFTISRDNAKNTVYLQMNSLKPEDTAVYYCAAVRPWWRNKPQWPRYDYWGLGTQVTVSS | low polyreactivity
QVQLVESGGGLVQAGGSLRLSCAASGSIFQRYTMGWYRQAPGKERELVAAITSRSGRTYYADSVKGRFTISRDNAKNTVYLQMNSLKPEDTAVYYCATVPYDQTRGYKYDYWGQGTQVTVSS | high polyreactivity
QVQLVESGGGLVQAGGSLRLSCAASGSIFQSYAMGWYRQAPGKERELVATITISDGSTYYADSVKGRFTISRDNAKNTVYLQMNSLKPEDTAVYYCAATDYISYGAPLRRGLNYDYWGQGTQVTVSS | low polyreactivity
QVQLVESGGGLVQAGGSLRLSCAASGSIFQSYDMGWYRQAPGKERELVAAIRSGDSTYYADSVKGRFTISRDNAKNTVYLQMNSLKPEDTAVYYCNKDEATFLSKDGYWGQGTQVTVSS | low polyreactivity
QVQLVESGGGLVQAGGSLRLSCAASGSIFQWNAMGWYRQAPGKERELVAAISSGTSTNYADSVKGRFTISRDNAKNTVYLQMNSLKPEDTAVYYCAAEGRGWAAFEVGYWGQGTLVTVSS | low polyreactivity
QVQLVESGGGLVQAGGSLRLSCAASGSIFQWNAMGWYRQAPGKERELVAAISTRGGRTYYADSVKGRFTISRDNAKNTVYLQMNSLKPEDTAVYYCAKQYGSYGRYYKYYYWGQGTQVTVSS | high polyreactivity
QVQLVESGGGLVQAGGSLRLSCAASGSIFQWYAMGWYRQAPGKERELVAAINWSSGSTYYADSVKGRFTISRDIAKNTVYLQMNSLKPEETAVYYCAARIGYGTSYLRRIYYWGQGTQVTVSS | high polyreactivity
QVQLVESGGGLVQAGGSLRLSCAASGSIFQYNAMGWSRQAPGKERELVAAIRTNYADSVKGRFTISRDNAKNTVYLQMNSLKPEDTAVYYCAAESSQTPTSAFDYWGQGTQVTVSS | low polyreactivity
QVQLVESGGGLVQAGGSLRLSCAASGSIFQYNAMGWYRQAPGKERELVAVISRSGSRTYYADSVKGRFTISRDNAKNTVYLQMNSLKPEDTAVYYCAAPFTSIGARDYYYWGQGTQVTVSS | high polyreactivity
QVQLVESGGGLVQAGGSLRLSCAASGSIFQYYGMGWYRPAPGKERELVAAITWNGGSTYADSVKGRFTISRDNAKNTVYLQMNSLKPEDTAVYYCAADLLVRWWLDYDYWGQGTQVTVSS | low polyreactivity

Sequence | polyreactivity (PSR sort gate)
QVQLVESGGGLVQAGGSLRLSCAASGSIFQYYGMVWYRQAPGKERELVASISRSGGSTYYADSVKGRFTISRDNAKNTVYLQMNSLKPEDTAVYYCNAKEPIRRTHLTSTYRDGYWGQGTQVTVSS | low polyreactivity
QVQLVESGGGLVQAGGSLRLSCAASGSIFQYYLIGWYRKAPGKERELVAAIRRSGTTYYADSVKGRFTISRDNAKNTVYLQMNSLKPEDTAVYYCNKVRGQEQSNYDYWGQGTQVTVSS | low polyreactivity
QVQLVESGGGLVQAGGSLRLSCAASGSIFQYYVMGWYRQAPGKERELDAAIRRSGTTYYADSVKGRFTISRDNAKNTVYLQMNSLKPEDTAVYYCNADSIYYYYLIEYEYWGQGSQVTVSS | low polyreactivity
QVQLVESGGGLVQAGGSLRLSCAASGSIFQYYVMGWYRQAPGKERELVAAISQSGGRTYYADSVKGRFTISRDNAKNTVYLQMNSLKPEDTAVYYCAADSRNAEYDYWGQGTQVTVSS | high polyreactivity
QVQLVESGGGLVQAGGSLRLSCAASGSIFRAYAMGWYRQAPGKERELVAAINWTDGSTYYADSVKGRFTISRDKAKNTVYLQMNSLKPEDTAVYYCAKDSIARHNYWGQGTQVTVSS | low polyreactivity
QVQLVESGGGLVQAGGSLRLSCAASGSIFRAYAMGWYRQAPGKERELVAGITKSGGSTYYADSVKGRFTISRDNAKNTVYLQMNSLKAEDTAVYYCAAYRSRTYGYWGQGTQVTVSS | high polyreactivity
QVQLVESGGGLVQAGGSLRLSCAASGSIFRAYVMGWYRQAPGKERELVAAISRGGSTNYADSVKGRFTISRDNAKNTVYLQMNSLKPEDSAVYYCAADWYFYSMYDEVEYWGQGTQVTVSS | low polyreactivity
QVQLVESGGGLVQAGGSLRLSCAASGSIFRDNAMGWYLQAPGKERELVASISRRGGSTYYADSVKGRFTISRDNAKNTVYLQMNSLKPEDTAVYYCAARAVGGTVPTRYDYWGQGTQVTVSS | high polyreactivity
QVQLVESGGGLVQAGGSLRLSCAASGSIFRDYAMGWYRPAPGKERELVAAISSGVSTNYADSVKGRFSISRDNAKNSVYLKMNSLIPEDTAVYYCNTDKYSESFRSYEYWGQGTQVTVSS | low polyreactivity
QVQLVESGGGLVQAGGSLRLSCAASGSIFRFKAMGWYRQAPGKERELVAAISWSGGRTYYADSVKGRFTISRDNAKNTVYLQMNSLKPEDTAVYYCAARRSGLKVSPNFGYWGQGTQVTVSS | high polyreactivity
QVQLVESGGGLVQAGGSLRLSCAASGSIFRFNTMGWYRQAPGKERELVAAITSGDGTYYADSVKGRFTISRDNAKNTVYLQMNSLKPEDTAVYYCAATRTYQLYRWAPRYYYWGQGTQVTVSS | high polyreactivity
QVQLVESGGGLVQAGGSLRLSCAASGSIFRGNALGWYRQAPGKERELFAAISKSGGSTYYADSVKGRFTISRDNAKNTVDLEMNSLKPEDTAVYYCAARTTYLYGMYYWGQGTQVTVSS | low polyreactivity
QVQLVESGGGLVQAGGSLRLSCAASGSIFRGNAMGWYRQAPGKERELVAAISSRGGSTYYADSVKGRFTISRDNAKNTVYLQMNSLKPEDTAVYYCGAVRYKYWGVQRSYSWGQGTKVTVSS | high polyreactivity
QVQLVESGGGLVQAGGSLRLSCAASGSIFRGNAMGWYRQAPGKERELVASISKGGGSTDYADSVKGRFIISRDNAKNTVYLQMNSLKPEDNAVYYCNKDYDRPDYYYWGQGTQVTVSS | low polyreactivity
QVQLVESGGGLVQAGGSLRLSCAASGSIFRGNAMGWYRQAPVKERELVAGINRAGSTKYADSVKGRFTISRDNAKNTVYLQMNSLKPEDTAVYYCAAVRYERGLWSDYWGQGTQVTVSS | high polyreactivity
QVQLVESGGGLVQAGGSLRLSCAASGSIFRGYAMGWYRQAPEKERELVAAMSRRGGSTYYADSVKGRFTISRDNAKNTVYLQMNSLKPEDTAVYYCAADWLSWFHGYGMYYWGQGTQVTVSS | low polyreactivity
